In patent publication US20220040297A1 (Chugai, published 2022):
Substitutions are numbered along the chain they refer to.

B1: GLS3000 S56T (antibody, name in Kabat numbering, V domains shown)
VH: QVQLVESGGGVVQPGRSLRLSCAASGFTFSNAWMHWVRQAPGKGLEWVAQIKAKSNNYATYYAESVKGRFTISRDDSKNSLYLQMNSLKTEDTAVYYCRYVHYGAYYGVDAWGQGTTVTVSS
VL: DIVMTQSPLSLPVTPGEPASISCRSSQSLVHSNRNTYLHWYQQKPGQAPRLLIYKVSNRFTGVPDRFSGSGSGTDFTLKISRVEAEDVGVYYCGQGTQVPYTFGQGTKLEIK
notes: one-arm format as m2
B2: GLS3000 S56V (antibody, name in Kabat numbering, V domains shown)
VH: B1 VH
VL: B1 VL with T61V
notes: one-arm format as m2
B3: GLS3000 S56W (antibody, name in Kabat numbering, V domains shown)
VH: B1 VH
VL: B1 VL with T61W
notes: one-arm format as m2
B4: GLS3000 S56Y (antibody, name in Kabat numbering, V domains shown)
VH: B1 VH
VL: B1 VL with T61Y
notes: one-arm format as m2
B5: GLS3000 T31D (antibody, name in Kabat numbering, V domains shown)
VH: B1 VH
VL: B1 VL with T36D, T61S
notes: one-arm format as m2
B6: GLS3000 T31E (antibody, name in Kabat numbering, V domains shown)
VH: B1 VH
VL: B1 VL with T36E, T61S
notes: one-arm format as m2
B7: GLS3000 T31I (antibody, name in Kabat numbering, V domains shown)
VH: B1 VH
VL: B1 VL with T36I, T61S
notes: one-arm format as m2
B8: GLS3000 T31K (antibody, name in Kabat numbering, V domains shown)
VH: B1 VH
VL: B1 VL with T36K, T61S
notes: one-arm format as m2
B9: GLS3000 T31N (antibody, name in Kabat numbering, V domains shown)
VH: B1 VH
VL: B1 VL with T36N, T61S
notes: one-arm format as m2
B10: GLS3000 T31P (antibody, name in Kabat numbering, V domains shown)
VH: B1 VH
VL: B1 VL with T36P, T61S
notes: one-arm format as m2
B11: GLS3000 T92A (antibody, name in Kabat numbering, V domains shown)
VH: B1 VH
VL: B1 VL with T61S, T97A
notes: one-arm format as m2
B12: GLS3000 T92D (antibody, name in Kabat numbering, V domains shown)
VH: B1 VH
VL: B1 VL with T61S, T97D
notes: one-arm format as m2
B13: GLS3000 T92E (antibody, name in Kabat numbering, V domains shown)
VH: B1 VH
VL: B1 VL with T61S, T97E
notes: one-arm format as m2
B14: GLS3000 T92I (antibody, name in Kabat numbering, V domains shown)
VH: B1 VH
VL: B1 VL with T61S, T97I
notes: one-arm format as m2
B15: GLS3000 T92L (antibody, name in Kabat numbering, V domains shown)
VH: B1 VH
VL: B1 VL with T61S, T97L
notes: one-arm format as m2
B16: GLS3000 T92P (antibody, name in Kabat numbering, V domains shown)
VH: B1 VH
VL: B1 VL with T61S, T97P
notes: one-arm format as m2
B17: GLS3000 T92S (antibody, name in Kabat numbering, V domains shown)
VH: B1 VH
VL: B1 VL with T61S, T97S
notes: one-arm format as m2
B18: GLS3000 T92Y (antibody, name in Kabat numbering, V domains shown)
VH: B1 VH
VL: B1 VL with T61S, T97Y
notes: one-arm format as m2
B19: GLS3000 T97P (antibody, name in Kabat numbering, V domains shown)
VH: B1 VH
VL: B1 VL with T61S, T102P
notes: one-arm format as m2
B20: GLS3000 V27cD (antibody, name in Kabat numbering, V domains shown)
VH: B1 VH
VL: B1 VL with V30D, T61S
notes: one-arm format as m2
B21: GLS3000 V27cE (antibody, name in Kabat numbering, V domains shown)
VH: B1 VH
VL: B1 VL with V30E, T61S
notes: one-arm format as m2
B22: GLS3000 V27cI (antibody, name in Kabat numbering, V domains shown)
VH: B1 VH
VL: B1 VL with V30I, T61S
notes: one-arm format as m2
B23: GLS3000 V27cL (antibody, name in Kabat numbering, V domains shown)
VH: B1 VH
VL: B1 VL with V30L, T61S
notes: one-arm format as m2
B24: GLS3000 V27cP (antibody, name in Kabat numbering, V domains shown)
VH: B1 VH
VL: B1 VL with V30P, T61S
notes: one-arm format as m2
B25: GLS3000 V27cS (antibody, name in Kabat numbering, V domains shown)
VH: B1 VH
VL: B1 VL with V30S, T61S
notes: one-arm format as m2
B26: GLS3000 V27cY (antibody, name in Kabat numbering, V domains shown)
VH: B1 VH
VL: B1 VL with V30Y, T61S
notes: one-arm format as m2
B27: GLS3000 V51D (antibody, name in Kabat numbering, V domains shown)
VH: B1 VH
VL: B1 VL with V56D, T61S
notes: one-arm format as m2
B28: GLS3000 V51E (antibody, name in Kabat numbering, V domains shown)
VH: B1 VH
VL: B1 VL with V56E, T61S
notes: one-arm format as m2
B29: GLS3000 V51G (antibody, name in Kabat numbering, V domains shown)
VH: B1 VH
VL: B1 VL with V56G, T61S
notes: one-arm format as m2
B30: GLS3000 V51I (antibody, name in Kabat numbering, V domains shown)
VH: B1 VH
VL: B1 VL with V56I, T61S
notes: one-arm format as m2
B31: GLS3000 V51P (antibody, name in Kabat numbering, V domains shown)
VH: B1 VH
VL: B1 VL with V56P, T61S
notes: one-arm format as m2
B32: GLS3000 V94A (antibody, name in Kabat numbering, V domains shown)
VH: B1 VH
VL: B1 VL with T61S, V99A
notes: one-arm format as m2
B33: GLS3000 V94D (antibody, name in Kabat numbering, V domains shown)
VH: B1 VH
VL: B1 VL with T61S, V99D
notes: one-arm format as m2
B34: GLS3000 V94E (antibody, name in Kabat numbering, V domains shown)
VH: B1 VH
VL: B1 VL with T61S, V99E
notes: one-arm format as m2
B35: GLS3000 V94F (antibody, name in Kabat numbering, V domains shown)
VH: B1 VH
VL: B1 VL with T61S, V99F
notes: one-arm format as m2
B36: GLS3000 V94G (antibody, name in Kabat numbering, V domains shown)
VH: B1 VH
VL: B1 VL with T61S, V99G
notes: one-arm format as m2
B37: GLS3000 V94H (antibody, name in Kabat numbering, V domains shown)
VH: B1 VH
VL: B1 VL with T61S, V99H
notes: one-arm format as m2
B38: GLS3000 V94I (antibody, name in Kabat numbering, V domains shown)
VH: B1 VH
VL: B1 VL with T61S, V99I
notes: one-arm format as m2
B39: GLS3000 V94K (antibody, name in Kabat numbering, V domains shown)
VH: B1 VH
VL: B1 VL with T61S, V99K
notes: one-arm format as m2
B40: GLS3000 V94L (antibody, name in Kabat numbering, V domains shown)
VH: B1 VH
VL: B1 VL with T61S, V99L
notes: one-arm format as m2
B41: GLS3000 V94M (antibody, name in Kabat numbering, V domains shown)
VH: B1 VH
VL: B1 VL with T61S, V99M
notes: one-arm format as m2
B42: GLS3000 V94N (antibody, name in Kabat numbering, V domains shown)
VH: B1 VH
VL: B1 VL with T61S, V99N
notes: one-arm format as m2
B43: GLS3000 V94P (antibody, name in Kabat numbering, V domains shown)
VH: B1 VH
VL: B1 VL with T61S, V99P
notes: one-arm format as m2
B44: GLS3000 V94Q (antibody, name in Kabat numbering, V domains shown)
VH: B1 VH
VL: B1 VL with T61S, V99Q
notes: one-arm format as m2
B45: GLS3000 V94R (antibody, name in Kabat numbering, V domains shown)
VH: B1 VH
VL: B1 VL with T61S, V99R
notes: one-arm format as m2
B46: GLS3000 V94S (antibody, name in Kabat numbering, V domains shown)
VH: B1 VH
VL: B1 VL with T61S, V99S
notes: one-arm format as m2

Target: CD3ε homodimer protein (human, UniProt P07766 23-126, limits assumed)
Assay: SPR, immobilized CD3ε homodimer;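 further: biacore T200 surface plasmon resonance at 25 °C, antibody variants flowed as analytes over amine-coupled CD3ε homodimer on a CM4 chip, variant binding amount divided by that of GLS3000 antibody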
Procedure: Each one-amino acid altered form constructed, expressed, and purified in the paragraph (6-2) was evaluated using Biacore T200 (GE Healthcare Japan Corp.). An appropriate amount of CD3ε homodimer protein was immobilized onto Sensor chip CM4 (GE Healthcare Japan Corp.) by the amine coupling method. Then, the antibody having an appropriate concentration was injected thereto as an analyte and allowed to interact with the CD3ε homodimer protein on the sensor chip. Then, the sensor chip was regenerated by the injection of 10 mmol/L glycine-HCl (pH 1.5). The assay was conducted at 25° C., and HBS-EP+ (GE Healthcare Japan Corp.) was used as a running buffer. […] Each parameter was calculated using Biacore T200 Evaluation Software (GE Healthcare Japan Corp.).
Specifically, when the amount of the GLS3000-containing antibody bound was defined as X and the amount of the L chain one-amino acid altered form bound was defined as Y, a value of Z (ratio of amounts bound)=Y/X was used.

Chain of CD3ε homodimer protein (P07766 23-126 limits assumed): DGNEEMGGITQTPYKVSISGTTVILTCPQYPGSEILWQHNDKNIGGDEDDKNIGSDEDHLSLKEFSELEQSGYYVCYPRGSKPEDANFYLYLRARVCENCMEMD

Binder | ratio of amounts bound (vs GLS3000)
B1 | 0.97
B2 | 0.95
B3 | 1.38
B4 | 1.46
B5 | 0.23
B6 | 0.49
B7 | 0.97
B8 | 1.04
B9 | 0.32
B10 | 0.31
B11 | 0.63
B12 | 0.18
B13 | 0.17
B14 | 0.34
B15 | 0.42
B16 | 0.26
B17 | 0.96
B18 | 0.33
B19 | 0.31
B20 | 0.32
B21 | 0.61
B22 | 0.96
B23 | 0.84

Binder | ratio of amounts bound (vs GLS3000)
B24 | 0.3
B25 | 0.51
B26 | 0.77
B27 | 0.33
B28 | 0.64
B29 | 0.84
B30 | 0.81
B31 | 0.32
B32 | 1.05
B33 | 0.89
B34 | 0.5
B35 | 0.71
B36 | 0.48
B37 | 0.78
B38 | 0.66
B39 | 0.57
B40 | 0.44
B41 | 0.44
B42 | 1.05
B43 | 1.26
B44 | 0.76
B45 | 0.66
B46 | 0.93
